Laboratory results reported in patent US20160280784A1, “Antibodies Directed to GPNMB and Uses Thereof” (Celldex Therapeutics, Inc., priority 2009, published 2016).

Columns and labels:
[1] = test system: patients with locally advanced or metastatic breast cancer; assay: Phase I/II study of CDX-011, preliminary 18 patients: toxicity and dose escalation; assay type: in vivo, human
Experimental: (§1) There was no limit to the number of prior regimens.
(§2) For Phase I dose escalation studies, the starting dose was 1.34 mg/kg IV every three weeks (q3w). Sequential dose cohorts (n=3) were enrolled based on tolerability. The cap was set at 1.88 mg/kg IV q3w.
The toxicity results are shown below in Table 34. All treatment-emergent adverse events are shown in the table, regardless of attribution.

[2] = test system: GPNMB-expressing breast cancer cells; assay: growth / killing of GPNMB-expressing breast cancer cells in vitro; assay type: cell-based
[3] = test system: patients with locally advanced or metastatic breast cancer; assay: Phase II study (n = 42): tolerability of CR011-vcMMAE (CDX-011); assay type: in vivo, human
Source text: (§3) For the Phase II Simon Two-Stage study, the primary endpoint was set at progression-free rate at 12 weeks. The following statistical assumptions were used p0=10%; p1=30%; α=β=0.10; first stage included sixteen patients; and if two or more patients were progression-free at 12 weeks, the total enrollment would increase to 25.
In particular, the treated patients (n=42) received a mean of 3.5 (range 1-8) cycles of treatment during this study. Four patients discontinued treatment due to adverse events (neuropathy, rash, dermatologic bullae and acute renal failure). Dose-escalation dose-limiting toxicities (DLTs) were limited to two cases of neuropathy (at the 1.34 mg/kg dose). After revision of the protocol to exclude pre-existing neuropathy ≧Grade 2, no further DLT occurred.

melanoma = melanoma patients; cited from earlier work
[4] = test system: patients with locally advanced or metastatic breast cancer; assay: Phase II Simon Two-Stage study / Phase II dose: anti-tumor activity (RECIST); assay type: in vivo, human; settings: for Median PFS: Phase II Dose 1.88 mg/kg
Experimental: as §3
Additional measures of anti-tumor activity were evaluated for the patients in this further study.

[5] = test system: patients with locally advanced or metastatic breast cancer; assay: Phase I/II study of CDX-011, preliminary 18 patients: tumor response; assay type: in vivo, human
Experimental: as §1, §2

[6] = 18 patients, regardless of attribution
[7] = All Patients (n = 42), potentially related to CDX-011
[8] = one patient with triple-negative disease, strongly positive stromal GPNMB expression

glembatumumab vedotin [CDX-011]
tolerability in dose escalation ([1]; 1.88 mg/kg IV q3w): tolerated | Alopecia, Total [1, 6]: 9 (50%) n (%) | Anorexia, Grade 3 [1, 6]: 0 (0%) n (%) | Anorexia, Grade 4 [1, 6]: 0 (0%) n (%) | Anorexia, Total [1, 6]: 5 (28%) n (%) | Any Event, Grade 3 [1, 6]: 10 (56%) n (%) | Any Event, Grade 4 [1, 6]: 0 (0%) n (%) | Any Event, Total [1, 6]: 18 (100%) n (%) | Constipation, Grade 3 [1, 6]: 0 (0%) n (%) | Constipation, Grade 4 [1, 6]: 0 (0%) n (%) | Constipation, Total [1, 6]: 6 (33%) n (%) | Cough, Grade 3 [1, 6]: 1 (6%) n (%) | Cough, Grade 4 [1, 6]: 0 (0%) n (%) | Cough, Total [1, 6]: 6 (33%) n (%) | Diarrhea, Grade 3 [1, 6]: 0 (0%) n (%) | Diarrhea, Grade 4 [1, 6]: 0 (0%) n (%) | Diarrhea, Total [1, 6]: 5 (28%) n (%) | Dizziness, Grade 3 [1, 6]: 0 (0%) n (%) | Dizziness, Grade 4 [1, 6]: 0 (0%) n (%) | Dizziness, Total [1, 6]: 4 (22%) n (%) | Dysgeusia, Grade 3 [1, 6]: 0 (0%) n (%) | Dysgeusia, Grade 4 [1, 6]: 0 (0%) n (%) | Dysgeusia, Total [1, 6]: 4 (22%) n (%) | Fatigue, Grade 3 [1, 6]: 1 (6%) n (%) | Fatigue, Grade 4 [1, 6]: 0 (0%) n (%) | Fatigue, Total [1, 6]: 9 (50%) n (%) | Fever, Grade 3 [1, 6]: 0 (0%) n (%) | Fever, Grade 4 [1, 6]: 0 (0%) n (%) | Fever, Total [1, 6]: 5 (28%) n (%) | Nausea, Grade 3 [1, 6]: 1 (6%) n (%) | Nausea, Grade 4 [1, 6]: 0 (0%) n (%) | Nausea, Total [1, 6]: 8 (44%) n (%) | Neuropathy, Grade 3 [1, 6]: 2 (11%) n (%) | Neuropathy, Grade 4 [1, 6]: 0 (0%) n (%) | Neuropathy, Total [1, 6]: 7 (39%) n (%) | Neutropenia, Grade 3 [1, 6]: 3 (17%) n (%) | Neutropenia, Grade 4 [1, 6]: 0 (0%) n (%) | Neutropenia, Total [1, 6]: 5 (28%) n (%) | Pain, Gastrointestinal, Grade 3 [1, 6]: 1 (6%) n (%) | Pain, Gastrointestinal, Grade 4 [1, 6]: 0 (0%) n (%) | Pain, Gastrointestinal, Total [1, 6]: 6 (33%) n (%) | Pain, Musculoskeletal, Grade 3 [1, 6]: 1 (6%) n (%) | Pain, Musculoskeletal, Grade 4 [1, 6]: 0 (0%) n (%) | Pain, Musculoskeletal, Total [1, 6]: 5 (28%) n (%) | Pruritus, Grade 3 [1, 6]: 0 (0%) n (%) | Pruritus, Grade 4 [1, 6]: 0 (0%) n (%) | Pruritus, Total [1, 6]: 3 (17%) n (%) | Rash, Grade 3 [1, 6]: 1 (6%) n (%) | Rash, Grade 4 [1, 6]: 0 (0%) n (%) | Rash, Total [1, 6]: 11 (61%) n (%) | Vomiting, Grade 3 [1, 6]: 0 (0%) n (%) | Vomiting, Grade 4 [1, 6]: 0 (0%) n (%) | Vomiting, Total [1, 6]: 7 (39%) n (%) | dose-limiting toxicity ([1]; first two patients enrolled at 1.34 mg/kg IV q3w, both had baseline neuropathy): dose-limiting worsening of peripheral sensory neuropathy | patients discontinued for an adverse event ([1]; of 18 patients treated, one for neuropathy and one for rash): two | killing of GPNMB-expressing breast cancer cells [2]: selectively killed | growth of GPNMB-expressing breast cancer cells ([2]; in vitro): effectively inhibits the growth | tolerability ([3]; 1.88 mg/kg IV q3w, patients with advanced breast cancer): well-tolerated | Alopecia, Total [3, 7]: 14 (33%) n (%) | Anemia, Total [3, 7]: 10 (24%) n (%) | Asthenia, Grade 3 [3, 7]: 2 (5%) n (%) | Asthenia, Total [3, 7]: 3 (7%) n (%) | Fatigue, Grade 3 [3, 7]: 2 (5%) n (%) | Fatigue, Total [3, 7]: 20 (48%) n (%) | Nausea, Grade 3 [3, 7]: 2 (5%) n (%) | Nausea, Total [3, 7]: 19 (45%) n (%) | Neuropathy, Grade 3 [3, 7]: 1 (2%) n (%) | Neuropathy, Total [3, 7]: 10 (24%) n (%) | Neutropenia, Grade 3 [3, 7]: 8 (19%) n (%) | Neutropenia, Total [3, 7]: 12 (29%) n (%) | Rash, Grade 3 [3, 7]: 2 (5%) n (%) | Rash, Total [3, 7]: 19 (45%) n (%) | Vomiting, Grade 3 [3, 7]: 1 (2%) n (%) | Vomiting, Total [3, 7]: 12 (29%) n (%) | serious adverse events potentially related ([3]; all single cases at the Phase II dose): intractable vomiting/nausea, dermatologic bullae and acute renal failure | dose-escalation dose-limiting toxicities (DLTs) ([3]; at the 1.34 mg/kg dose): two | patients discontinued treatment due to adverse events ([3]; n=42, neuropathy, rash, dermatologic bullae and acute renal failure): Four | most common adverse event reported ([3]; patients treated with CR011-vcMMAE): Rash | clinical activity (melanoma): clinical activity | tolerability (melanoma): well tolerated | Median PFS ([4]; all patients): 9.1 weeks | Median PFS ([4]; Expressing GPNMB): 18.3 weeks | Median PFS ([4]; Triple-negative disease): 17.9 weeks | outcomes by expression of GPNMB ([4]; heavily pretreated advanced breast cancer patients): associated with improved outcomes | duration partial response was maintained [4, 8]: ≥ 23 weeks | tumor shrinkage (partial response) [4, 8]: 53% | patients without progression at 12 weeks (primary efficacy endpoint) ([4]; out of 26 patients): at least 9 patients | tumor shrinkage ([5]; initial results from a phase I/II trial, metastatic breast cancer): tumor shrinkage was observed | confirmed partial response ([5]; of the 18 patients): one | patients with at least a partial response ([5]; of the 18 patients): three | tumor shrinkage observed ([5]; of the 18 patients (50%)): 9 patients | maximum tumor reduction ([5]; one patient, ER+/PR+/HER2+, partial response after two cycles, confirmed 6 weeks later, treatment for over 5 months): 42% | reduction in target lesions (partial response, CT) ([5]; one patient, ER+/PR+/HER2−, GPNMB positive biopsy, after two cycles): 51% | clinical outcome ([5]; one patient, triple negative, skull metastases, following two cycles, resolution of mental nerve paresis and discontinuation of analgesics): marked clinical improvement | reduction in target lesions (partial response, CT) ([5]; one patient, triple negative, after four cycles): 34%
